# Test results taken from patent US20030235860A1, “Interactions between AR, ER, TR2, and TR4” (priority 1999, published 2003).
# T1: estrogen receptor (ER), full-length (human, UniProt P03372 1-595)
# T1 construct: 35S-labeled when in vitro translated for the pull-downs; endogenous in MCF7 cells for the co-immunoprecipitation; also called ERα; pSG5-ER
# T1 sequence: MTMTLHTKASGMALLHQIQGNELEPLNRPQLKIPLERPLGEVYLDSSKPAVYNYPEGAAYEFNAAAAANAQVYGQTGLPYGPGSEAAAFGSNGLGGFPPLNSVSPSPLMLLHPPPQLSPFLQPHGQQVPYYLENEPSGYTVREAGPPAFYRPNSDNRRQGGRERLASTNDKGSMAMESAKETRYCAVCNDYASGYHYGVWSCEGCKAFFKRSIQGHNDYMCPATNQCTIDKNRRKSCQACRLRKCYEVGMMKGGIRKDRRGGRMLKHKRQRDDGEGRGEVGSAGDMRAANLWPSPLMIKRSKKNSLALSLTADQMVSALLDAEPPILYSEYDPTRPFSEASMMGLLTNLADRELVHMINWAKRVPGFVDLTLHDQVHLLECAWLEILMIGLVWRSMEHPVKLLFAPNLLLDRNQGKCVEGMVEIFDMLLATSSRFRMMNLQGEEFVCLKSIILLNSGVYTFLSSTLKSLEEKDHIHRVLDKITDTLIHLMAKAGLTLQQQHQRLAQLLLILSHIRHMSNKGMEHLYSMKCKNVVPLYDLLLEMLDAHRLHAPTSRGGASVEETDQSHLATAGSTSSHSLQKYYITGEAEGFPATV
# T2: TR2 (Homo sapiens, UniProt P13056)
# T2 sequence (P13056 1-603): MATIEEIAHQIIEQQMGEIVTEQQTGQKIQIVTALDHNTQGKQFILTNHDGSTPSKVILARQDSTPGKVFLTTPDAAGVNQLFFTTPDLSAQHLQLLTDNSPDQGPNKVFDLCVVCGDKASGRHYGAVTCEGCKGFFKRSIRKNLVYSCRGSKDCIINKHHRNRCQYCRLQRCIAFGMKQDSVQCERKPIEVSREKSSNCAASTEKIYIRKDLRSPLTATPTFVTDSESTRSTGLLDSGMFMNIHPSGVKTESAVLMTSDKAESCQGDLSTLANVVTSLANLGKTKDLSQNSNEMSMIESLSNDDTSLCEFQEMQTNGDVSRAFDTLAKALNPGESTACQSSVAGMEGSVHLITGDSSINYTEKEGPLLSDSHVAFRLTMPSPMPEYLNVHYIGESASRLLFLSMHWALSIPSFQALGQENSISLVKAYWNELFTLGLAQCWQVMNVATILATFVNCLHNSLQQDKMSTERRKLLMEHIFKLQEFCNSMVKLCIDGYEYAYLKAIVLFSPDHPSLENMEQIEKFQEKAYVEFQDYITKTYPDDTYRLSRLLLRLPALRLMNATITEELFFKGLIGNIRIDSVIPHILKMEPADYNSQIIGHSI
# B1: TR4 LBD (row label of Table 4) (receptor)
# chain: AASTEKIYIRKDLRSPLIATPTFVADKDGARQTGLLDPGMLVNIQQPLIREDGTVLLATDSKAETSQGALGTLANVVTSLANLSESLNNGDTSEIQPEDQSASEITRAFDTLAKALNTTDSSSSPSLADGIDTSGGGSIHVISRDQSTPIIEVEGPLLSDTHVTFKLTMPSPMPEYLNVHYICESASRLLFLSMHRARSIPAFQGLGQDCNTSLVRACWNELFTLGLAQCAQVMSLSTILAAIVNHLQNSIQEDKLSGDRIKQVMEHIWKLQEFCNSMANWDIDGYEYAYLKAIVLFSPDHPGLTSTSQIEKFQEKAQMELQDYVQKTYSEDTYRLARILVRLPALRLMSSNITEELFFTGLIGNVSIDSIIPYILKMETAEYNGQITGVSL
# notes: not shown: Fusion partner: GST in the pull-down with ER, GAL4-DBD in the hybrid assays with AR
# B2: TR2 DBD (row label of Table 4) (receptor)
# chain: DLSAQHLQLLTDNSPDQGPNKVFDLCVVCGDKASGRHYGAVTCEGCKGFFKRSIRKNLVYSCRGSKDCIINKHHRNRCQYCRLQRCIAFGMKQDSVQCERKPIEVSREK
# notes: not shown: GST fusion partner of pGEX-KG (GST-TR2-#2)
# B3: TR2 N-T (row label of Table 4) (receptor)
# chain: MATIEEIAHQIIEQQMGEIVTEQQTGQKIQIVTALDHNTQGKQFILTNHDGSTPSKVILARQDSTPGKVFLTTPDAAGVNQLFFTTPDLSAQHLQLLTDNSPDQGPNKVFDL
# notes: also called TR2 N-terminal domain; not shown: GST fusion partner of pGEX-KG (GST-TR2-#1)
# B4: GST-ER-DBD: GST fusion of aa 123-340 of ER (protein)
# chain: PHGQQVPYYLENEPSGYTVREAGPPAFYRPNSDNRRQGGRERLASTNDKGSMAMESAKETRYCAVCNDYASGYHYGVWSCEGCKAFFKRSIQGHNDYMCPATNQCTIDKNRRKSCQACRLRKCYEVGMMKGGIRKDRRGGRMLKHKRQRDDGEGRGEVGSAGDMRAANLWPSPLMIKRSKKNSLALSLTADQMVSALLDAEPPILYSEYDPTRPFSEA
# modifications: left off: a dimerising Fc or GST; small tags and cut ends
# notes: GST fusion of aa 123-340 of ER
# B5: GST-ER-#2: GST fusion of ER aa 123-340 (protein)
# chain: B4 chain
# modifications: left off: a dimerising Fc or GST; small tags and cut ends
# B6: GST-ER-N: GST fusion of aa 1-165 of ER (protein)
# chain: MTMTLHTKASGMALLHQIQGNELEPLNRPQLKIPLERPLGEVYLDSSKPAVYNYPEGAAYEFNAAAAANAQVYGQTGLPYGPGSEAAAFGSNGLGGFPPLNSVSPSPLMLLHPPPQLSPFLQPHGQQVPYYLENEPSGYTVREAGPPAFYRPNSDNRRQGGRERL
# modifications: left off: a dimerising Fc or GST; small tags and cut ends
# notes: GST fusion of aa 1-165 of ER
# B7: GST-ER-#I: GST fusion of ER aa 1-165 (protein)
# chain: B6 chain
# modifications: left off: a dimerising Fc or GST; small tags and cut ends
# Tests used:
# PSA = experiment: Northern blot of endogenous PSA in LNCaP cells; assay type: cell-based, human; conditions: LNCaP cells
# Description: Total RNA from the DHT-treated transfected LNCaP cells was prepared by the ultracentrifugation method as described. Lee, et al., J: Biol. Chem. 273, 13437-13443 (1998). The probe was obtained from exon 3 of PSA gene and labeled with a-32p dCTP.
# To rule out the potential artificial effects linked to transfected reporter assays, the expression of endogenous prostate specific antigen (PSA, an androgen target that is widely used as a marker for prostate cancer progression) in LNCaP cells was measured by Northern blot analysis. Total RNA (25 μg) from LNCaP cells, which were transfected with either pCMX-TR4 or pCMX vector using SuperFect (Qiagen), was applied into a formamide RNA gel, then transferred onto a Nylon membrane, and then hybridized with a 32P-PSA gene fragment from the exon 3. P-actin was used as an internal control. […] The level of secreted PSA protein in the medium measured by ELISA, also confirmed this conclusion. This in vivo TR4-mediated suppressive effect strongly supports the above reporter assays.
# Total RNA from transfected LNCaP cells was prepared using TRIZOL reagents (Life Technology) as instructed by manufacturer. The probe was obtained from the PSA gene by PCR and labeled with 32P dCTP. Northern hybridization was performed as described previously [Mu X. M. et al. (2002) J Biol Chem 275:23877-23883].
# MCF7-TR2 cells = experiment: MTT growth assay, MCF7-TR2 cells; assay type: cell-based; conditions: MCF7-TR2 cells; 10 nM E2, and/or 2 mg/ml doxycycline (TR2 induction)
# Description: (A) Growth assays were performed by MTT method as instructed by manufacturer (Sigma). 5×10^3 MCF7-pBIG and MCF7-TR2 cells were seeded in 24-well plates and incubated in RPMI with 10% CD-FCS for 48 h. […] After 3- and 5-day treatment, cells were harvested for MTT assay. Data represents the relative folds of MTT O.D.570 values at day 5 divided by that at day 3. […] Cells were then trypsinized and fixed overnight in 70% Ethanol. After cells were incubated with 1 mg/ml RNase A (Sigma) and propidium iodide (Roche Molecular Biochemicals), the DNA contents of cells were measured by a flow cytometry. (C) Percentage of growth suppression by TR2. MCF7-TR2 cells were seeded at 5×10^3 cells per well in 24-well plates. […] The treatments were changed every two days. The indices of cell growth were determined by MTT assay. The MTT values from cells without doxycycline were set as 100% in each kind of treatment. Values are represented by the percentage of growth suppression from cells with doxycycline to that without doxycycline.
# [1] = biological target: T1, estrogen receptor (ER), full-length; experiment: Table 4, summary of interactions tested; assay not given
# TR2 = biological target: T2, TR2; experiment: GST-ER fragment pull-down of [35S]-TR2; assay type: binding; set-up: host or cells: in vitro translation, TNT reticulocyte lysate; conditions: for Interaction with [35S]-TR2: GST-ER fragments, presence of 1 μM E2, Example 1; for Interaction with TR2: GST-fused ER peptides, presence or absence of E2, Example 2
# Description: Fusion proteins of GST-TR2, GST-ER segments and GST were obtained by transforming expressing plasmids into BL21(DE3) pLysS competent bacteria followed with 2-hour IPTG induction. GST-proteins were then purified by mixing Glutathione-Sepharose™ 4B (Pharmacia) into bacteria lysates on a rotating disk at 4° C. for 40 mm followed by washing with 1 mL NENT buffer (20 mM Tris-HCL (pH 8.0), 100 mM NaCl, 1 mM EDTA, 6 mM MgCl2, 1 mM Dithiothretiol, 8% Glycerol, 1 mM PMSF and 0.5% (v/v) NP-40). The ER, AR, RXRA., and TR2 proteins labeled with [35S] were generated in vitro by using the TNT reticulocyte lysate system (Promega). For the in vitro interaction, the glutathione-Sepharose bound GST-proteins were resuspended with 100 μl of interaction buffer (20 mM HEPES pH 7.9, 150 mM KCl, 5 mM MgCl2. 0.5 mM EDTA, 0.5 mM Dithiothretiol, 0.1% (v/v) NP-40, 0.1% (w/v) BSA and 1 mM PMSF) and mixed with 5 μl of […] at 4° C. for 3 h. After extensive washes with NENT buffer, the bound proteins were separated on an SDS/8% PAGE and visualized by using autoradiography.
# The in vitro GST pull-down assay was applied to examine the interaction between the TR2 and ER. In vitro-translated, [35S]-labeled ER, AR, and RXRα proteins were incubated with GST or GST-TR2 bound on glutathione-Sepharose beads. After extensive washing, proteins were separated on an SDS/8% PAGE and visualized by using autoradiography.
# GST alone and GST fusion proteins were purified by Glutathione-Sepharose 4B beads as instructed by manufacturer (Amersham Pharmacia). The pull-down assay was performed with 5 μl of in vitro-translated [^35S]-labeled proteins as described previously (Yeh, S. et al. (2000) Proc. Natl. Acad. Sci. USA 97, 11256-61).
molecule,measurement,setting,value
"C[C@]12CCC(=O)C[C@@H]1CC[C@@H]1[C@@H]2CC[C@]2(C)[C@@H](O)CC[C@@H]12 [DHT, hihydroxytestosterone, reference compound]",PSA mRNA expression,"PSA; 10 nM DHT, pCMV-TR2, Example 4",induces PSA mRNA expression
same,Induction of PSA transcript,PSA; 24 hours of DHT treatment,about 2.5 fold
"C[C@H]1c2cccc(O)c2C(=O)C2=C(O)[C@]3(O)C(=O)C(C(N)=O)=C(O)[C@@H](N(C)C)[C@@H]3[C@@H](O)[C@@H]21 [doxycycline, reference compound]","Cell growth, relative folds of MTT O.D.570 at day 5 divided by day 3",MCF7-TR2 cells,11.1 fold
B1,binding result,[1],binds
B2,binding result,[1],binds
B3,binding result,[1],no binding
B4,Interaction with [35S]-TR2,TR2,not
B5,Interaction with TR2,TR2,can interact
B6,Interaction with [35S]-TR2,TR2,not
B7,Interaction with TR2,TR2,not
